Reference: a protein production outcome set (Wang et al. 2014)

Test: label from the status in PepcDB records

| Sequence | protein production |
| --- | --- |
| MFITTEGINAGYTIKDVVEATSSLMLASEDIDKYNMFDQLFDEAKQKLKKKADLLEGDGIIGLKYNTEVVEVNGAPKFLVVHGYGTVILIDK | not failed |
| MFKGDMNKKRAKALQKVKEAITLHGGQTILSTGITGDDARLAKAVCEAGVKLLEPNHPALALARGHKGVSNMHAAEQIRHEITNSQMAEAVHGVRNVVPDDIFITVGIAGGFTETLPVPLSEKEILEIARAGADGLHTHKSDWDDLQDIVNLAHQYGLTVDAYIGHPDDLHTFGIPARTPEEVASVAKRMQDIGVDMIGLMTGMSYEGVAAGDIPQMIKDRLRALVGAVDVPTLAEGGINLANAKAFKDTGVNILVVGTAIDNMVCNAAKEAVTPFIVH | not failed |
| MFKPEEMVKIELISLARYRDIIMTYLHERGVVQLEEVPIEDIQHDAPNEYYRKATSYSITMGRLVDTLKGFLPPRKTSIKEFIFPKEREKRVYTYRGIEDLVKDVEKFLSEVEPKIREVETQLTAINNRIANIREIINTLELLSSLNIEIEYLIPGSFLAIEVGKIERERVEKLIGELKNELGDKVFILRRDLGTISLLVVVTLKEFQGKLTSILAKYGFEKVEIPRERGHPRELIPKYNELLKEEMKKLEEIRKKGREFAEKYYEDLVFYKELMDNERDKANYLSYLARTELTVALVGWLPKKNVEEVVEGIKNLTGGKVYINIREPEPNEIEEVPVKLKNPEFISQFEMLTEMYGVPKYNELDPTPILAFTYSFFFGFMLTDFMYGLLLGIVSALLVKGHSKMKDGTWKFAKIMLWSSVFTMLLGALFGSYFGNALDMAGFKVPRIMDAMEEALTVLIIALAIGLGHLFTGYVLGFIVKWKNGDKVGAILDQLSWILIILGVTLFAISSRIDLPKLAWMSVFGAGAVLFIIGEFKNNGLMALLLVISDFFGFVGNWLSYARLMALALATAGIALVINIMVQMIWGFKIGPVPLGIIVGAIVFIGGHIFSTAINALGAFVHALRLHYVEFFGTFYSGEGRRFEPFAARREISELKIEKPGGE | failed |
| MFKVLQCLTIDHDYRYTAAAVVVCMLGSFVTMRLFSKARLATGLQKVNWLFLAGVNGGAAIWTTHFVAMLGYVAAGDVGYDPYLTGLSLLIAITTTTAGFGISAYGGRSVLVEAGGTILGLGIAAMHYTGMAAYNVQGMIFWDQAYVIASLVLGSVLGAIAVNRIARPLNRFCQYSAVAFLILAIASMHYTGMASMSFAFDPRIIIPENLLPPAIMGGGAIAVTLLLLALGLSTYVIDAQSTQQAVARYRHLSLHDPLTGIPNRAAFIEHLNRRTRHISMGAHTALLSIDLDRFKEINDVHGHAAGDAVLRAIADRASSVLKAGEFLARMGGDEFVAMTHSYYTRADGAEFAQRLIEQISKPVEWNGQTFSVGASVGISVRNTGSIDADTLMAQADVAMYRAKSATSDTICFYDKSMDEAARARNALAIAMRSGLANNEFELYYQQQNDTKSGSIVGFEALLRWKHPERGMVSPVEFIPIAEQTGFIVELGEWVLREACAQAARWKKSLAIAVNVAPQQLADNDFPDKVERILAETGLAPERLELEITEGSIIADHRHALVTIRKLKSLGVKIAMDDYGTGYSSLSTLQSFPFDKIKIDRAFIDGLSTNVQSEAIVRSTLILAHSLNIPVLAEGVETKAHIEFLRREGCLQVQGFFFGKPGPLTSIANLVDDTFLSAEDETEEASGRRYIKVVR | failed |
| MFLGELTERPVSLYAAAVLRIGYGLLYLAFLLREFPHRDEIWGPGSPWTPELARQLFDQTGWVSILTLSDGRAYFEACYALALVTCALFLLGWRTRAVSVLFAVVVASFHARAIFMTDGGDNLVLLMAVYLVFTACGRRWSLDARRTRLRAGASPAASPPARQEADGFRRQLGASRRTLTAVLHNCGMFVIAAQVCFLYGSAGLYKVQGGSWGNGTALHYVLNLDLFRPWPELSLLTDEHDVLMAIACYLTVLLQVAFPFVLFGRLKYPVLTVLLGMHLGIAVLLGLPLFSGAMIVADAVFLPDRCYLLLGRLWRRAGRRTGSTEAGAPARGESAFLPPQSAVSSPRTAAAPVRGRRA | failed |
| MFLKKGKKKLYKSGKNWVAALLLSAAVLSFYSAGLNQQTASAATSSQTKAVSYDKITNKQTVNYSAYVNENNRNDGLYSAPALTDVASMTSTGSAKSLNGHLVMVSEIDTTKRASTGVSYQYAKITDNNKSYWVDLRALNDSAQITSTQTVNFQAYINGDTRNDGLYSAPALTTSSSLTPLAYSKSLNKKSVMVSEINTTKRASTGLSYQYAKITYNGKTYWVDARAVFDSITSKQTNLNYYATISETNRNDGIYEEPALTSLASMASTGSVKTFDQDSVEVLEIDTTFRNSNDQKYQYAKVTNGTNTYWVDVRALNTSGFAKITSSKTEDYSAYINEANRKDSIYDNGPALTSPTTLTASALAKTVNGDQVEVIALDTTTRSNGSQYTYLEVKDGSNTYWIDSRAVTAYNFDSITNQQTVNETATINEGGRSDGLYNAPALTSPSSLTSTGSAKDLDGQTVTILEIDTTKRASNGNTYQYAKIAYNGKTYWVDARALNNSTYSGAIMVNFEDENGNQLASPIEYTGKIGSTYQPEPKAITGYSVDLAKTGSIDLTYSSTTQTITYIYEKSTATTTDLINGQGQGIDNDSWTVGSDVQPGWYKITPIGLGTDDNIVLNVEGSDSSDLPLANDISGAWFGSDSSAGEISSYQAYLTAGQVIEMQDNGTDAAAGQGLHLETLSTRPATSLIDPESPIPSSFQDLGAGIYEVGVDIRPGNYQVADILGEGYLYTDDGTVSLDLGTGHGDTSTGTITLTTGELLTSTINGISLEPEN | failed |
| MFLNGKVFIKGALGPRRRDASVSATQSQGAGGGVWGGPGSELAPPSRPRGRASGLLRIKLFEASRLRSRERKMAAPAGGGGSAVSVLAPNGRRHTVKVTPSTVLLQVLEDTCRRQDFNPSEYDLKFQRTVLDLSLQWRFANLPNNAKLEMVPASRSREGPENTVRIALQLDDGCRLQDSFCSRQTLWELLNHFAQTRERLQQLGERTPVCVYMRDEVTGRAALQNTTLQSLGLTGGSATIRFVIKQYDTTGKQESIAVRSKPPGSPVSSMSADQASSSPLLPLNSGEFSRGDLNHQGGASTSGTSLKGGPKPADAQTKQSTTKESASAPFIPFSGGGQRLGGPSVSLRSLTSPAAKSSTSFSGPGGPSKPKKSKPGEEPPQEPEPPVDRDPVVCHPDLEDLLQPWPAEVPDEFFEVTVDDVRRRLAQLKSERKRLEEAPLVTKAFREAQMKEKLERYPKVALRVLFPDRYILQGFFRPSETVGDLRDFVRSHLGNPELSFYLFIAPPKMVLDDHTLTLFQVPIALRVLLGLAVLGGQALCCGWVGKEPWQALQWVIKPLEPVNSEGAVASEVVSDWAFQPPPLPAWPRGGDWPAQLAGLLSSAGAA | failed |
| MFLSAASSIIYLLLFFIASLIILVFSSDAFFDNAVPMFRSRGIGDMYAGTIFVGFASVLDEIALSASSLIFRHPEIGIGAVEGSNLITMAFFTVIVAVSYLEVAGEFTLDMIVILVLTILSMVFAEIFVHIPWFYSIALFVPFVVYLVIKAGGSKEAGYGPQEYSNIVLIVSFFLIFLSSDTLVRSTIGIASYTGINLVDLSAYGIGMVSSFPEIIMILVSLRGGRKVVSMGIFTGSTVYKMSLIPGIIIVSEPTGFSDIFYMLLAILVMSLLVLFLGIMSRKSQGRSNIH | failed |
| MFLSRPLVRIASAADRFLHGETEVKIPVKHDDEIGRLARAFNYLSEEIVRLTRKEEWLREVLSSIREAIIVTNASGEIVLANPAASRLFMIEAARKRSIPVTNIEDAAMRELFERVQKRQSGIYNEELTAMTSKGKRTLKVTAVPVMRRGALFDGTVLVINDVTRLRNLERTRRDFVSSVSHELRTPLASIKGYTETLLEGAMNDPENATAFLNIIHQEAEQLTALVNDVLDLSRIESGKIAYSFEPVDVKPQLEKTAALFEPAAARKGVRIELNAPEGLPAVLADRSYFDIVVRNLIDNAIKYVDAESGRVRVSAYATGDSVSIEVADNGIGIPQADLDRIFERFYRVDKARSRELGGTGLGLSIVKHIVLAHKGKVEVRSRINRGTTFTVTLPVAGA | failed |
| MFLTAVNPQPLSTPSWQIETKYSTKVLTGNWMEERRKFTRDTDKTPQSIYRKEYIPFPDHRPDQISRWYGKRKVEGLPYKHLITHHQEPPHRYLISTYDDHYNRHGYNPGLPPLRTWNGQKLLWLPEKSDFPLLAPPTNYGLYEQLKQRQLTPKAGLKQSTYTSSYPRPPLCAMSWREHAVPVPPHRLHPLPHF | failed |
| MFMNRLFGKPKQETSTLQTLDKLNETLEMLEKKENVLLKKATGEVEKAKEFSRAKNKRAAIQCLKRKRLYEQQVEQLGNFQLRIHDQMIMLEGAKATTETVDALRTGASAMKAMQKATNIDDVDKTMDEINEQTENMKQIQEALSAPFGANDFDEDELEAELDELEGAELEEQLLQPVPIHVPQGNKPARAPAQKQPTAEEDELAALQAEMAL | failed |
